Laboratory results from article PMC4960544, “Production of full-length soluble Plasmodium falciparum RH5 protein vaccine using a Drosophila melanogaster Schneider 2 stable cell line system” (Scientific Reports, 2016).

Experiments:
[1] = target: T1, PfRH5 protein variant version 1.0 (7G8 sequence, four N-linked glycosylation sequons mutated Thr to Ala) (Plasmodium falciparum (7G8 …, UniProt Q8IFM5 26-526, C203Y | Thr to Ala in the sequon starting at N38 (position 40 worked out) | Thr …)); assay: SPR; basigin immobilised on a CM5 chip by amine coupling (850 RU); PfRH5 variant injected at 8-0.0625 uM, 120 s at 30 uL/min, 300 s dissociation; 20 C; 10 mM HEPES pH 7.4, 150 mM NaCl, 3 mM EDTA, 0.005% Tween-20, 2 mg/mL dextran, 1 mg/mL salmon sperm DNA; blank surface subtracted; global 1:1 interaction model; details: both partners purified
T1 construct: The construct has an N-terminal 18-residue BiP insect signal peptide (…) in place of the native one; No cleavage site for the His6 tag is described; also called PfRH5 v1.0; v1.0
T1 sequence: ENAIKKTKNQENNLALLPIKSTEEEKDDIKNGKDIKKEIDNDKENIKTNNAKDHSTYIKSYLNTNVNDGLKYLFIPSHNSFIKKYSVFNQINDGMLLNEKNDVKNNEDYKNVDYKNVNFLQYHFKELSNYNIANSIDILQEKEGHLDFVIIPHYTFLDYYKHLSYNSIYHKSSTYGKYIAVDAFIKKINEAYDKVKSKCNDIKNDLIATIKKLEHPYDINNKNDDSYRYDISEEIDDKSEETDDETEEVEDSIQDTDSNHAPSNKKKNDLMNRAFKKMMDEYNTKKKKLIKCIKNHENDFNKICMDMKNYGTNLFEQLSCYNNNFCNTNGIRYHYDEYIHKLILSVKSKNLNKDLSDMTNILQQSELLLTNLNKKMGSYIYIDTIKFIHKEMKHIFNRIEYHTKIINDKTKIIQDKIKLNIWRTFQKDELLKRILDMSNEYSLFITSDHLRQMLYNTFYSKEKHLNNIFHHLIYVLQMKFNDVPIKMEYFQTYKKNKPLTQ

[2] = target: T2, PfRH5 protein variant version 2.0 (3D7 sequence, four N-linked glycosylation sequons mutated Thr to Ala) (Plasmodium falciparum (3D7 clone), UniProt Q8IFM5 26-526, Thr to Ala in the sequon starting at N38 (position 40 worked out) | Thr to Ala …); assay: as above; details: both partners purified
T2 construct: The construct has an N-terminal BiP insect signal peptide (…); No cleavage site for the His6 tag is described; also called PfRH5 v2.0; v2.0
T2 sequence: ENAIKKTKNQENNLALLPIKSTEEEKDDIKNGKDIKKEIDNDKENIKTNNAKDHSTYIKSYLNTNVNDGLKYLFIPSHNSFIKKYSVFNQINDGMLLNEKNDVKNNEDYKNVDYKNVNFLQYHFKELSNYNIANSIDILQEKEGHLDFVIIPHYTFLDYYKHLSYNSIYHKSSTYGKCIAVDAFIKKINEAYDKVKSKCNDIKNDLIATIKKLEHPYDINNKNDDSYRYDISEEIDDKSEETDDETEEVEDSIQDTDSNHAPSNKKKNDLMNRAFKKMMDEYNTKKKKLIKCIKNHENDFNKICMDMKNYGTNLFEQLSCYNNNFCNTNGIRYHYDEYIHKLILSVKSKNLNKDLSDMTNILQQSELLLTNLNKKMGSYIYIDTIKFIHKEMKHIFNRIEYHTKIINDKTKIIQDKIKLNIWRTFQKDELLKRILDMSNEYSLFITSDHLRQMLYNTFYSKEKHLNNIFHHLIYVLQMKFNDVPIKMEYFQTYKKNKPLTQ

B1: recombinant basigin, immunoglobulin domains 1 and 2 of the short isoform (22-205) (domain or fragment)
chain: GAAGTVFTTVEDLGSKILLTCSLNDSATEVTGHRWLKGGVVLKEDALPGQKTEFKVDSDDQWGEYSCVFLPEPMGTANIQLHGPPRVKAVKSSEHINEGETAMLVCKSESVPPVTDWAWYKITDSEDKALMNGSESRFFVSSSQGRSELHIENLNMEADPGQYRCNGTSSKGSDQAIITLRVRSH
notes: additional glycine left at the N-terminus from the TEV cleavage site; basigin (CD147), immunoglobulin domains 1 and 2 of the short isoform, residues 22-205; numbers count on: the short isoform; basigin is spoken of as the red blood cell receptor of the human malaria parasite; also called CD147; PfRH5 receptor; not shown: His6, N-terminal, cleaved
- binding result [1]: binds
- binding result [2]: binds
